The results in this text go back to patent US20230125788, “TDP-43 MODULATING AGENTS AND USES THEREOF” (Washington University, published 2023).

Series [1] concerns the target T1, TDP-43 WT (UniProt Q13148 Q13148:1-414). Description: FP; higher Kd than modified; values only in figure. Particulars: tags: N-terminal His6-SUMO (Smt3), E. coli BL21(DE3), pET28b(+)-SUMO-TDP43.
Series [2] concerns the target T1, TDP-43 WT. Description: EMSA; at least three TDP-43 bound per oligo; 150 mM NaCl, 2 mM MgCl2, Tris pH 8. Particulars: tags: N-terminal His6-SUMO (Smt3), E. coli BL21(DE3), pET28b(+)-SUMO-TDP43; label: 5' 700 nm IR dye. In general terms: In EMSA bound probe runs differently from free probe, usually more slowly.
The target of series [3] is T1, TDP-43 WT. Description: FP; Kd dramatically lower than unmodified; values only in figure. Particulars: tags: N-terminal His6-SUMO (Smt3), E. coli BL21(DE3), pET28b(+)-SUMO-TDP43.
The target in series [4] is T1, TDP-43 WT. Description: FP; apparent; 300 mM NaCl, 10 mM Tris pH 8.0. Particulars: tags: N-terminal His6-SUMO (Smt3), E. coli BL21(DE3), pET28b(+)-SUMO-TDP43; label: FITC.
Description: Each point is the average of >3 technical and 3 biological replicates, respectively (SEM).
Recombinant TDP-43 wild-type (WT) and constructs previously purified were serially diluted in a 1:2 ratio (from 75 to 0 nM) into a 300 mM of NaCl, 10 mM of Tris (pH 8.0), 5% glycerol, 5% sucrose, 1 mM of TCEP buffer solution. A(GU)₆ RNA labeled with fluorescein isothiocyanate (FITC) from IDT was used at a final concentration of 0.6, 1.3, 2.5, and 5 nM. […] The anisotropy measurements were performed in a Biotek SYNERGY Neo2 (BioSPX) plate reader with excitation and emission wavelengths of 480 and 520 nm, respectively. To assess the binding curves, the data were fitted as previously described. Data analysis was performed using GraphPad Prism 5.
A further series deals with T2, TDP-43 RRM1-2 (UniProt Q13148 Q13148:102-269).
T2 chain: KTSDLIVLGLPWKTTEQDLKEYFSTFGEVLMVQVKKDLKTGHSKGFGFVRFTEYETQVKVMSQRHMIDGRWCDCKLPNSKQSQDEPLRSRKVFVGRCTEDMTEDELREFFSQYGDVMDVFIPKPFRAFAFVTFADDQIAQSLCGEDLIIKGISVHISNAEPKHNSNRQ
Description: FP; apparent; 300 mM NaCl. Particulars: tags: N-terminal His6-SUMO; label: FITC.

A further series has as its target T3, TDP-43 deltaN (UniProt Q13148 Q13148:102-414).
T3 chain: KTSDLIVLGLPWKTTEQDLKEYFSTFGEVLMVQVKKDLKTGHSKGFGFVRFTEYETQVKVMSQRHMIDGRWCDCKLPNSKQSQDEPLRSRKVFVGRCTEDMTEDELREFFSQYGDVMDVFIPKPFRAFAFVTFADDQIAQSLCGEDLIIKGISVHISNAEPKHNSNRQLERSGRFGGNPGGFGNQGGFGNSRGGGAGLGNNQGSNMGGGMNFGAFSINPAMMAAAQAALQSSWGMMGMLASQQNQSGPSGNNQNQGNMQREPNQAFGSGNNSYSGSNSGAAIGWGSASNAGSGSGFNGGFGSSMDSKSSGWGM
Description: FP; apparent; 300 mM NaCl. Particulars: tags: N-terminal His6-SUMO; label: FITC.

T1 sequence (Q13148 whole entry, one chain of several): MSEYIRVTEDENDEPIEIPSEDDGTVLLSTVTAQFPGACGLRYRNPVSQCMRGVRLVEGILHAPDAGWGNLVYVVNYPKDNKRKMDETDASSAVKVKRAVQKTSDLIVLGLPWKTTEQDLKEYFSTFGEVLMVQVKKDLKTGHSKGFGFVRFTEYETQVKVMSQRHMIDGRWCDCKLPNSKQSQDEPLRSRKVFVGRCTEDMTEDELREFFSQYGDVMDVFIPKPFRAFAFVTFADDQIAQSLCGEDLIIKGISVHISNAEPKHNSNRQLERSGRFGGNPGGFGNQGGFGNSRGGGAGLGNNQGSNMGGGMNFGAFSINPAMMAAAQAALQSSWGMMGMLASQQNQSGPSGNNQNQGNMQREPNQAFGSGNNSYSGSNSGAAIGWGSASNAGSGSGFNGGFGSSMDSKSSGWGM

B1: A(GU)6 unmodified (ssRNA)
RNA: AGUGUGUGUGUGU
With B1, in the series with TDP-43 WT [1], the binding result was “binds”.

B2: CLIP34 IR700 (ssRNA)
RNA: GAGAGAGCGCGUGCAGAGACUUGGUGGUGCAUAA
As for B2, the binding result in the series with TDP-43 WT [2] is on record as “binds”.

B3: CLIP34 unmodified (ssRNA)
RNA: B2 RNA
Take B3: the binding result with TDP-43 WT [1] is “binds”.

B4: A(GU)6 2OMe (XNA)
DNA: AGTGTGTGTGTGT
modifications: 2'-OMe all; PS all linkages
For B4, in the series with TDP-43 WT [3], the binding result was “binds”.

B5: A(GU)6-FITC (ssRNA)
RNA: AGUGUGUGUGUGU
modifications: 2'-OMe and PS unless otherwise noted (general statement)
As to B5, the values for the Kd in the series with TDP-43 WT [4], with TDP-43 RRM1-2 and with TDP-43 deltaN were 0.8 nM, 0.8 nM and 0.7 nM, respectively.

B6: CLIP34 2OMe (XNA)
DNA: GAGAGAGCGCGTGCAGAGACTTGGTGGTGCATAA
modifications: 2'-OMe all; PS all linkages
Regarding B6, the binding result in the series with TDP-43 WT [3] is listed as “binds”.
